{
  "source": "patent US12162911B2",
  "about": "“Pulmonary administration of pyocins for treating bacterial respiratory infections” (priority 2014, dated 2024)",
  "molecules": {"B1": {"name": "Pyocin S5: S-type pyocin, SEQ ID NO: 13; binds FptA, pore-forming effector (protein, listed as Pseudomonas aeruginosa)", "chain": "MSNDNEVPGSMVIVAQGPDDQYAYEVPPIDSAAVAGNMFGDLIQREIYLQKNIYYPVRSIFEQGTKEKKEINKKVSDQVDGLLKQITQGKREATRQERVDVMSAVLHKMESDLEGYKKTFTKGPFIDYEKQSSLSIYEAWVKIWEKNSWEERKKYPFQQLVRDELERAVAYYKQDSLSEAVKVLRQELNKQKALKEKEDLSQLERDYRTRKANLEMKVQSELDQAGSALPPLVSPTPEQWLERATRLVTQAIADKKQLQTTNNTLIKNSPTPLEKQKAIYNGELLVDEIASLQARLVKLNAETTRRRTEAERKAAEEQALQDAIKFTADFYKEVTEKFGARTSEMARQLAEGARGKNIRSSAEAIKSFEKHKDALNKKLSLKDRQAIAKAFDSLDKQMMAKSLEKFSKGFGVVGKAIDAASLYQEFKISTETGDWKPFFVKIETLAAGAAASWLVGIAFATATATPIGILGFALVMAVTGAMIDEDLLEKANNLVISI"}},
  "key": {"P. aeruginosa P8 [1]": {"tested_on": "P. aeruginosa P8", "assay": "Mouse model of acute lung infection, P. aeruginosa P8", "format": "in vivo, Pseudomonas aeruginosa", "procedure": "Study design. […] For all experiments 6 week-old, female, murine pathogen free C57/BL6 mice weighing 15-21 g were used (Charles Rivers Laboratories, UK). All mice received food and water ad libitum and were housed in groups during the experiments. Power calculations were used to predetermine sample size (n=6, for all treatment experiments). Mice were culled when required as determined by a scoring system or culled at the pre-determined 24 h time point. All mice, including outliers were included in the statistical analysis. Experiments were either carried out once only or repeated once (defined for each experiment).\n(§1) Model of acute lung infection. Female C57/BL6 mice were inoculated intranasally with 25 μl of bacterial culture containing approximately 10^7 CFU of the selected P. aeruginosa strain^36. Antibiotic treatments were administered at either 6 h pre-infection or 1 h post-infection and were administered only once. Pyocins or tobramycin dissolved in PBS were administered via intranasal administration as described above. Two different end-points were used in these experiments. In order to determine a reduction in the bacterial load of the lungs compared to the untreated controls, all mice in the experiment were culled by carbon dioxide asphyxiation at the same time; 4-6 h post infection. To determine if mice could survive infection after pyocin or tobramycin treatment, mice were monitored closely, culled by carbon dioxide asphyxiation when required as determined by a scoring system or culled at the pre-determined 24 h time point. Uninfected mice, treated with pyocins, were used as controls in the first series of experiments in order to ensure no adverse effects from pyocin treatment. These controls were stopped in later experiments in order to reduce the number of animals used, once it was clear that the pyocins were not harmful. For CFU determination, lungs were removed aseptically and kept on ice in 750 μl of PBS until homogenised. Serial 10-fold dilutions of the homogenised lung were plated on Pseudomonas selective agar (20 g peptone, 1.5 g K2HPO4, 1.5 g MgSO4·7H2O, 10 ml glycerol, 15 g agar, 0.025 g Irgasan per litre) and incubated at 37° C. for 24 h and then room temperature for 24 h before the colonies were counted."}, "[2]": {"tested_on": "collection of diverse environmental and clinical isolates", "assay": "Activity against a collection of diverse environmental and clinical isolates", "format": "cell-based, Pseudomonas aeruginosa"}, "P. aeruginosa P8 [3]": {"tested_on": "P. aeruginosa P8", "assay": "Repeated pyocin exposure followed by P. aeruginosa P8 lung infection and pyocin S5 treatment", "format": "in vivo, Pseudomonas aeruginosa", "settings": "for survival: infected at thirteen weeks, 75 μg intranasal 1 h post-infection", "procedure": "Repeated pyocin exposure. Pyocin S5 or PBS was given three times, two weeks apart with administration either via intranasal route (referred to as I.N. groups) or intraperitoneal route (referred to as I.P. groups). For I.N. administration the groups were: PBS and pyocin S5 (75 μg; 25 μl at 3 mg ml^−1). For I.P. administration the group was pyocin S5 (75 μg; 100 μl at 750 μg ml^−1). The PBS I.N. group served as the control group for the I.P. group. Thirteen weeks after the first exposure mice (n=5) were infected intranasally with P. aeruginosa P8 (I.N group infected with 1.4×10^7 CFU, I.P group infected with 5.0×10^6 CFU) and treated intranasally one hour post-infection with 75 μg of pyocin S5 or PBS, as described previously.\nTo ascertain if repeated exposure to pyocins gives rise to an antibody response that is detrimental to treatment, mice were repeatedly exposed to pyocin S5 to induce an antibody response and the efficacy of pyocin treatment was determined as before after infection with P. aeruginosa P8. Pyocin S5 was administered three times, with two weeks between each administration, either via the intranasal route (I.N.) or the intraperitoneal (I.P.) route. Thirteen weeks after the first treatment, mice (n=5) were infected intranasally with P. aeruginosa P8 (I.N. group infected with 1.4×10^7 CFU, I.P. group infected with 5.0×10^6 CFU) and treated intranasally 1 h post-infection with 75 μg of pyocin S5 or PBS. A control group administered only PBS intranasally prior to infection was also included. […] The levels of pyocin-S5 specific IgG and IgA were analysed for each mouse."}, "[4]": {"tested_on": "P. aeruginosa P5 (mucoid)", "assay": "Mouse model of acute lung infection, P. aeruginosa P5", "format": "in vivo, Pseudomonas aeruginosa", "procedure": "as §1\nSince strains of P. aeruginosa are phenotypically diverse, we tested the efficacy of the pyocins against three additional isolates: P. aeruginosa P17 and P. aeruginosa P5 (mucoid), both from cystic fibrosis patients and P. aeruginosa E2, an environmental isolate. Pyocin S2 was not active against P. aeruginosa P5 or P. aeruginosa E2 in vitro therefore was not used to treat these strains in vivo and similarly pyocin L1 was not used against P. aeruginosa P17. […] Lung homogenates from P. aeruginosa E2-infected AP41-treated mice contained high levels of viable bacteria, reduced only 10-fold relative to control mice (Table 1). […] Thus, pyocins show strong efficacy against diverse strains of P. aeruginosa with pyocin S5 treatment displaying the largest effect on reducing bacterial load."}, "[5]": {"settings": "survival to 24 h, treatment 1 h post-infection"}},
  "note": "Entries after “also recorded” stand apart in the source; their conditions may differ.",
  "data": [
    {"molecule": "B1", "values": [
      {"measurement": "survival", "setting": "P. aeruginosa P8 [1]; 30 ng ml^−1, 1 h post-infection (FIG. 2b)", "value": "survived to 24 h"},
      {"measurement": "bacterial counts compared to the PBS controls", "setting": "P. aeruginosa P8 [1]; 30 ng ml^−1, 24 h post-infection (FIG. 2b)", "value": "significantly reduced the bacterial counts"},
      {"measurement": "bacteria recovered from lung", "setting": "P. aeruginosa P8 [1]; 3 mg ml^−1 1 h post-infection, 24 h post-infection, six mice (FIG. 1d)", "value": "no bacteria recovered; also recorded: No colonies were recovered"},
      {"measurement": "treated mice from which viable bacteria were recovered", "setting": "P. aeruginosa P8 [1]; 3 mg ml^−1 intranasal 1 h post-infection, culled 4.5 h post-infection (FIG. 1c)", "value": "three out of six"},
      {"measurement": "viable bacteria recovered from lung", "setting": "P. aeruginosa P8 [1]; 3 mg ml^−1 intranasal 6 h pre-infection, 24 h post-infection (FIG. 1b)", "value": "no viable bacteria were recovered; also recorded: No colonies were recovered"},
      {"measurement": "viable bacteria recovered from lung homogenates", "setting": "P. aeruginosa P8 [1]; C57/BL6 mice, 3 mg ml^−1 intranasal 6 h pre-infection, culled 4 h post-infection (FIG. 1a)", "value": "no viable bacteria were recovered; also recorded: No colonies were recovered"},
      {"measurement": "concentration at which effective in this model", "setting": "P. aeruginosa P8 [1]; in vivo", "value": "lower than 1 nM"},
      {"measurement": "Lowest active concentration tested", "setting": "P. aeruginosa P8 [1]; lowest concentration tested with which the treated mice survived to 24 h", "value": 30, "unit": "ng/mL"},
      {"measurement": "potency relative to tobramycin", "setting": "P. aeruginosa P8 [1]; minimum effective concentrations compared", "value": "at least 100 fold"},
      {"measurement": "Corresponding molarity", "setting": "P. aeruginosa P8 [1]; molarity of lowest active concentration tested", "value": 535, "unit": "pM"},
      {"measurement": "bacterial load compared with tobramycin", "setting": "P. aeruginosa P8 [1]; pyocin S5 0.3 or 3 mg ml^−1 versus tobramycin 30 or 3 mg ml^−1, 1 h post-infection, culled 4.5 h (FIG. 2a)", "value": "reduced the bacterial load to a greater extent than tobramycin"},
      {"measurement": "bacterial counts compared with tobramycin", "setting": "P. aeruginosa P8 [1]; repeat of FIG. 2a experiment (FIG. 6)", "value": "reduced bacterial counts to a greater extent than tobramycin"},
      {"measurement": "lowest concentration at which effective (lower limit)", "setting": "P. aeruginosa P8 [1]; [5]", "value": "> 300", "unit": "pg/mL"},
      {"measurement": "lowest concentration at which effective (upper limit)", "setting": "P. aeruginosa P8 [1]; [5]", "value": "≤ 30", "unit": "ng/mL"},
      {"measurement": "strains against which active", "setting": "[2]", "value": 87, "unit": "%"},
      {"measurement": "survival", "setting": "P. aeruginosa P8 [3]; I.N. pre-exposure 75 μg three times two weeks apart", "value": "survived to the 24 h time-point"},
      {"measurement": "bacterial load of the lungs", "setting": "P. aeruginosa P8 [3]; I.N. pre-exposure 75 μg three times, 75 μg intranasal 1 h post-infection (FIG. 8a)", "value": "no viable bacteria were recovered"},
      {"measurement": "survival", "setting": "P. aeruginosa P8 [3]; I.P. pre-exposure 75 μg three times two weeks apart", "value": "all survived to the 24 h time-point"},
      {"measurement": "bacterial load of the lungs", "setting": "P. aeruginosa P8 [3]; I.P. pre-exposure 75 μg three times, 75 μg intranasal 1 h post-infection (FIG. 8c)", "value": "no viable bacteria were recovered"},
      {"measurement": "survival / protection", "setting": "[4]; pyocin 3 mg ml^−1, endpoint 24 h, infected controls culled at 4.5 h", "value": "survived until the 24 h endpoint"},
      {"measurement": "bacterial count in lung, P5", "setting": "[4]; pyocin 3 mg ml^−1, treated mice survived to 24 h, no treatment 1.7 × 10^5 CFU/lung", "value": "No colonies"}
    ]}
  ]
}
